# Reference: US20250320288A1, “METHOD OF TREATING VITILIGO WITH INTERFERON-GAMMA ANTIBODY” (Elixiron Immunotherapeutics (Hong Kong), priority 2022, published 2025)
# “Also recorded” adds a separate entry of the source.
# Columns and labels:
# [1] = tested on: melanocytes; assay: Melanocyte apoptosis, Annexin V / 7AAD flow cytometry; type: cell-based, human; settings: IFN-γ 10 or 100 ng/ml, 48 hrs
# Procedure: Materials and methods: Melanocyte cell apoptosis was detected with Annexin V (BD, 550474) and 7AAD (1 mg/mL, Sigma A9400-1 MG). The cells were detached and resuspended with […] binding buffer (BD, 556454) containing Annexin V and 7AAD for 15 min at room temperature in the dark. Before analysis, cells were added to a […] binding buffer and immediately analyzed a on a flow cytometer (Verse BD).
# [2] = tested on: melanocytes; assay: Intracellular ROS in melanocytes (CM-H2DCFDA); type: cell-based, human; settings: 10 and 100 ng/mL IFN-γ, day 7
# Procedure: Materials and methods: For intracellular ROS measurement, melanocytes were washed with PBS and incubated with 20 μM CM-H2DCFDA (Invitrogen) for 30 min at 37° C. in the dark. The cells were resuspended with PBS and examined with flow cytometry at an excitation wavelength of 488 nm and an emission wavelength of 530 nm; the data were analyzed with FlowJo.
# [3] = tested on: MITF; assay: Melanin regulators in melanocytes (RNA sequencing, MITF immunoblot); type: cell-based, human
# Description: (§1) Total RNA was extracted from melanocytes with an RNA purification kit (Zymo Research, r2050). After RNA samples were extracted from primary melanocytes and melanocytes cell line (Gibco), the samples were sent to Biotools Co., Ltd Taiwan for RNA sequence. The RNA quality was examined by Agilent Technologies 2100 Bio-analyzer with an RNA integrity value greater than 8. After rRNA depletion (Epicenter), RNA fragmentation, and library preparation (Illumina), the constructed libraries were then performed 150 bp paired-end sequencing by an Illumina NovaSeq6000 sequencer. The results from each sample were aligned to the GRCh38 genome by the HISAT2 software and analyzed by Biotools Co., Ltd Taiwan.
# (§2) Cells were washed in PBS and lysed in RIPA lysis buffer with proteases inhibitor and Phenylmethanesulfonyl fluoride (PMSF; Sigma-Aldrich, P7626). The total cell lysates were sonicated and centrifuged at 4° C., 13000 rpm for 30 min. Protein concentration was quantified using the Bradford assay. The total cell lysates were separated by SDS-PAGE and transferred to a PVDF membrane. The membrane was blocked with 5% BSA or 5% milk in TBST for 1 hour at room temperature and incubated with primary antibodies overnight at 4° C. and HRP-conjugated secondary antibodies for hour at room temperature. The protein was visualized by Thermo ibright1500. Primary antibodies were follows: anti-human SLC7A11 (CST, 12691), anti-human SLC3A2 (CST, 13180), anti-IRF1 (CST, 8478), anti-MITF (CST, 12590), and anti-GAPDH (Abcam, ab8245).
# [4] = tested on: human primary melanocytes (HEMn-DP); assay: IFN-γ inhibition of melanocyte melanogenesis (melanin content, absorbance 470 nm); type: cell-based
# Procedure: Materials and methods: To examine the dose-dependency of IFN-γ inhibition of HEMn-DP cell melanogenesis, HEMn-DP cells were seeded into a 24-well plate at a concentration of 200,000 cells/well in 1 mL assay medium (M254 supplemented with 1× HMGS, 10 ng/mL PMA plus Penicillin-Streptomycin) with serial dilutions of IFN-γ, followed by incubation at 37° C. for 7 days. The cell assay medium was replaced by fresh medium with serially titrated concentrations of IFN-γ on day 3 and day 5. On day 7, cells were first washed with PBS twice, lysed in 250 μL of 1N NaOH/10% DMSO solution, then incubated at 80° C. for 1 hr. After lysis, each lysate was transfer to 96 well plate, and absorbance of melanin was then measured at […]. The relative melanin quantity was normalized with cell viability of each sample which was measured by CellTiter-Glo kit, and data were analyzed using nonlinear regression curve fit using GraphPad Prism7. To determine the potency of EI-001, HEMn-DP cells were seeded as previously described, and IFN-γ pre-incubated with indicated amounts of EI-001 for 25 min in 1 mL of assay medium. After incubation, the mixture was added to each well (final IFN-γ concentration is 20 ng/ml). Melanin content of melanocytes was determined as previously described.
# [5] = tested on: SLC7A11; assay: Ferroptosis regulators in melanocytes (RNA sequencing, SLC7A11 immunoblot); type: cell-based, human
# Description: as §1, §2
# [6] = tested on: melanocytes; assay: Lipid peroxidation in melanocytes (BODIPY 581/591 C11); type: cell-based, human; settings: dose-dependent, Day 6
# Procedure: For lipid peroxidation examination, melanocyte cells were seeded in a 6-well plate and treated with IFN-γ the next day. Melanocytes were washed with PBS and incubated with Hanks balanced salt solution (HBSS, Gibco) containing 5 μM BODIPY 581/591 C11 (Invitrogen, D3861) and incubated for 15 minutes at 37° C. in a tissue culture incubator. The cells were resuspended with fresh HBSS and examined with flow cytometry; the data were analyzed with FlowJo.
# [7] = tested on: primary melanocytes; assay: Cell morphology assay in melanocytes; type: cell-based, human
# [8] = tested on: human primary melanocytes (HEMn-DP); assay: IFN-γ inhibition of human primary melanocyte cell viability (CellTiter-Glo); type: cell-based; settings: 72 hrs at 37° C.
# Procedure: Materials and methods: To examine the dose-dependency of IFN-γ inhibition of human primary melanocytes (HEMn-DP) cell viability, HEMn-DP cells were seeded into a 96-well plate at a concentration of 10,000 cells/well in 100 μL assay medium (M254 supplemented with 1× HMGS, 10 ng/mL PMA plus Penicillin-Streptomycin) at 37° C. for 5 hours. After seeding, 100 μL of IFN-γ serial dilutions were added, followed by incubation at 37° C. for 72 hrs. Then, cell proliferation was measured using CellTiter-Glo kit (Promega) according to the manufacturer's instructions. Luminescence was measured with an iD3 multimode reader (Molecular Devices), and data analyzed using nonlinear regression curve fit using GraphPad Prism7.
# [9] = tested on: primary melanocytes; assay: Melanocyte cell viability after IFN-γ, chemokines, cell death inhibitors or 2A6Q, Day 2 and Day 7; type: cell-based, human; settings: day 7 of treatment
# Procedure: To determine cell viability of melanocyte after treatment with IFN-γ, CXCL9, CXCL10, CXCL11, at Day 2, and Day 7, the cells were collected and seeded into 96-well plates. After adhesion, cells were treated with IFN-γ (0, 10, 100 ng/ml) with different compounds: 2A6Q, CXCL9, CXCL10, CXCL11, ROS scavenger (NAC), necroptosis inhibitor (NEC-1), pyroptosis inhibitor (VX-765), apoptosis inhibitor (QVD-OPH), Ferroptosis inhibitor (Liproxstaitin-1, Ferrostatin-1, DFO). Cell viability was measured using a CellTiter-Glo luminescent cell viability assay kit (Promega) according to the manufacturer's protocol. The […] of the final reaction product was measured using a luminometer (SpectraMax® iD3 Multi-Mode Microplate Reader (Molecular Devices). After calculation, the viability of control cells was 100%, and all others were normalized to control and shown as relative cell viability (%). Treatment dosage N-acetylcysteine (NAC; 0.05 mM, 1 mM), Necrostatin-1 (NEC-1; 20 μM, 2 μM), Belnacasan (VX-765; 50 μg/mL, 5 μg/mL), Quinoline-Val Asp-Difluorophenoxymethylketone (QVD-OPH; 10 μM, 2 μM), Liproxstaitin-1 (10 μM, 5 μM, 1 μM, 0.05 μM), Ferrostatin-1 (5 μM, 1 μM), Deferoxamine (DFO; 10 μM, […], 1 μM, 0.05 μM), 2A6Q (10 μg/mL), CXCL9 (10 ng/mL, 10 pg/mL), CXCL10 (10 ng/ml, 10 pg/mL), CXCL11(10 ng/mL, 10 pg/mL).
"IC50 of IFN-γ causing 50% inhibition of melanocyte melanogenesis ([4]; human primary melanocytes, 7 days, melanin content) [ng/mL]",Molecule,early phase apoptosis in melanocytes (Annexin V) [1],intracellular ROS in melanocytes [2],"expression of MITF (immunoblot) ([3]; melanocytes, 24 hrs of treatment)","expression of melanin regulators (MITF, MLANA, TYRP1, DCTT, TYR, TRPM1) ([3]; primary melanocyte, IFN-γ 100 ng/ml 24 hrs vs control, transcriptome)",melanin content of melanocytes under IFN-γ ([4]; spectrophotometer),"expression of ferroptosis markers SLC7A11, SLC3A2, Ferritin, GPX4 and TFR1 (RNA sequencing) ([5]; 24 hrs IFN-γ)",expression of SLC7A11 (immunoblot) ([5]; 48 hours incubation with IFN-γ),lipid peroxidation level in melanocytes [6],lowest concentration at which the morphology effect is present ([7]; dose-dependent effect) [ng/ml],"morphology change in melanocyte (loss of dendrite, ballooning of cytoplasm) ([7]; primary melanocytes, 7 days of treatment)",IC50 of IFN-γ causing 50% inhibition of melanocyte viability [8] [ng/mL],effect on cell viability of melanocytes (individual cytokine) [9]
0.392,"IFN-γ: recombinant human interferon gamma, cytokine added to melanocytes (protein, UniProt P01579 24-161, looked up) Interferon gamma: QDPYVKEAENLKKYFNAGHSDVADNGTLFLGILKNWKEESDRKIMQSQIVSFYFKLFKNFKDDQSIQKSVETIKEDMNVKFFNSNKKKRDDFEKLTNYSVTDLNVQRKAIHELIQVMAELSPAAKTGKRKRSQMLFRG",induced early phase apoptosis; also recorded: significantly upregulate Annexin V but not 7AAD,significantly elevated,dose-dependently downregulates,induced downregulation of melanin regulators,decrease in melanin content in a dose-dependent manner,downregulation,dose-dependently downregulated,increased,1,contributes to morphology change,8.114,significantly decreases
–,"CXCL11: IFN-γ downstream cytokine added to melanocytes (protein, UniProt O14625 22-94, looked up) C-X-C motif chemokine 11: FPMFKRGRCLCIGPGVKAVKVADIEKASIMYPSNNCDKIEVIITLKENKGQRCLNPKSKQARLIIKKVERKNF",–,–,–,–,–,–,–,–,–,–,–,"not CXCL9, CXCL10, or CXCL11 significantly decreases"
–,"CXCL9: IFN-γ downstream cytokine added to melanocytes (protein, UniProt Q07325 23-125, looked up) C-X-C motif chemokine 9: TPVVRKGRCSCISTNQGTIHLQSLKDLKQFAPSPSCEKIEIIATLKNGVQTCLNPDSADVKELIKKWEKQVSQKKKQKNGKKHQKKKVLKVRKSQRSRQKKTT",–,–,–,–,–,–,–,–,–,–,–,"not CXCL9, CXCL10, or CXCL11 significantly decreases"
